Numbered stars: 1 amine (or outer) side, 2 acyl side, 3 side chain; on linkers, the order of the positions; unused ones are H or OH. Bridge positions count the residues as written; N and C are the ends. Side chains are listed from the residue outwards. Ends that are not written are not given here. * marks the point of attachment. C20 diacid = O=C(O)CCCCCCCCCCCCCCCCCCC(=O)*; γGlu = O=C(O)[C@H](CCC(=O)[*:2])N[*:1]; AEEA = NCCOCCOCC(=O)O
T1: rat calcitonin receptor (rat, UniProt P32214 25-516)
T1 construct: whole, on cells; Membranes of BHK tk'ts 13 cells transiently transfected with the rat calcitonin receptor; also called rCTR; rat calcitonin (a) receptor
T1 sequence (looked up): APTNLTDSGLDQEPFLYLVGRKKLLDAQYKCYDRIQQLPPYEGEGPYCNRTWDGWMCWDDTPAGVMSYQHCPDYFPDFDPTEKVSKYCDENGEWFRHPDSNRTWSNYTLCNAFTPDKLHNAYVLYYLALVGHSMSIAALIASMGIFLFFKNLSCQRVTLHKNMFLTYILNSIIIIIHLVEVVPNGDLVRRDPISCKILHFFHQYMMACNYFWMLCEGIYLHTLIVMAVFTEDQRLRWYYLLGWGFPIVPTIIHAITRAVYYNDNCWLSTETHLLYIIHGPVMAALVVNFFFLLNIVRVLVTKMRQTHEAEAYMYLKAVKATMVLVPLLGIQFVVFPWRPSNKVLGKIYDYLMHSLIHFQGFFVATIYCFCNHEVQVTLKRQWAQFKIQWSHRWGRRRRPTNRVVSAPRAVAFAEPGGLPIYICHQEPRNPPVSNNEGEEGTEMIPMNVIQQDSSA

T2: human calcitonin receptor (human, UniProt P30988 25-474)
T2 construct: whole, on cells; Membranes of a BHK tk'ts 13 cell line stably transfected with the human calcitonin receptor; also called hCTR; hCT
T2 sequence (looked up): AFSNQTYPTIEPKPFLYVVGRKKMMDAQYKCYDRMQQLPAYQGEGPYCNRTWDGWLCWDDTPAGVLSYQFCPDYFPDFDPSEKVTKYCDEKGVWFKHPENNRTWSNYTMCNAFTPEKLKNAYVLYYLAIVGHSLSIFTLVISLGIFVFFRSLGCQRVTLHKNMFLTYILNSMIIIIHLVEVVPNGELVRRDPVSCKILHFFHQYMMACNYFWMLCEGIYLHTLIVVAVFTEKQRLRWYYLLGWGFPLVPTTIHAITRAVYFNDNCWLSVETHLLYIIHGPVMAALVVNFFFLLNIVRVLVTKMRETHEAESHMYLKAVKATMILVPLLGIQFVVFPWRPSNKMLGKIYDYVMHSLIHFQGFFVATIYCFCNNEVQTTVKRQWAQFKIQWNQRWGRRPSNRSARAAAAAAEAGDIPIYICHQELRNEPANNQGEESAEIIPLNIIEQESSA

T3: rat amylin receptor (rat calcitonin receptor + rat RAMP 3) (rat, UniProt P32214 25-516; Q9JJ73 23-147)
T3 construct: whole, on cells; Membranes of BHK tk'ts 13 cells transiently transfected with the rat calcitonin receptor and rat RAMP 3; also called rAmylin-R; rat amylin 3(a) receptor
T3 sequence (looked up) 1: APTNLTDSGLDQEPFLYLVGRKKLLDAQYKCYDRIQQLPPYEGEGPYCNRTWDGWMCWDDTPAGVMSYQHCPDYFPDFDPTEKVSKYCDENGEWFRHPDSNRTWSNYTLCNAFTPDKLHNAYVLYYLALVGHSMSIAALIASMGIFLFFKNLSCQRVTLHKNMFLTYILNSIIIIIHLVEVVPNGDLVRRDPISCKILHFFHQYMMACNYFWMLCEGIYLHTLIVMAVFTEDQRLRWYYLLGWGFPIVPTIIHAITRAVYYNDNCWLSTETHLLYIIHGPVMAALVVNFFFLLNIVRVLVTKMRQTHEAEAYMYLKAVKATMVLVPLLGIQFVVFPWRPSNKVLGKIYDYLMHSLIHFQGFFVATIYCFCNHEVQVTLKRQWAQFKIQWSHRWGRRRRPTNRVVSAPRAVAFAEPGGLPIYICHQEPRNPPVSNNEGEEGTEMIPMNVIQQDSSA
T3 sequence (looked up) 2: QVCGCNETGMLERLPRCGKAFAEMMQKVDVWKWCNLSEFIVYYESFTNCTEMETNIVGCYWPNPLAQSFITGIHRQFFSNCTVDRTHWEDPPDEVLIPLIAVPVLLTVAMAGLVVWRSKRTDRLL


Key:
rat calcitonin receptor [1] = target: T1, rat calcitonin receptor; assay: IC50 at rCTR divided by IC50 at rAmylin-R (reference)
[2] = target: T2, human calcitonin receptor; assay: IC50 at hCTR divided by IC50 at hAmylin-R (reference)
Method in brief: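 Membranes (35 ng/μL final) + SPA beads, 50 mM Hepes pH 7.4 buffer with 1 mM CaCl2, 5 mM MgCl₂, 0.1% OA, 0.02% Tween20; 120 min, 25° C, shaking; centrifuged, counted; IC₅₀ by one-site binding competition.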

[3] = target: T3, rat amylin receptor (rat calcitonin …); assay: SPA competition vs 125I-rat amylin, membranes with rat CTR + rat RAMP3 (Assay VI)
rat calcitonin receptor [4] = target: T1, rat calcitonin receptor; assay: SPA competition vs 125I-calcitonin, membranes with rat CTR (Assay VIII)

Row | Binder | Ratio rCT/rAmylin binding (rat calcitonin receptor [1]) | Ratio hCT/hAmylin binding [2] | IC50 [3] [nM] | IC50 (rat calcitonin receptor [4]) [nM]
1 | {C20 diacid-γGlu}-KCNTATCATQRLAHFLRHSSPNFGAIPSSTNVGSETY-NH2 (disulfide 2-7; SMILES CC[C@H](C)[C@H](NC(=O)[C@H](C)NC(=O)CNC(=O)[C@H](Cc1ccccc1)NC(=O)[C@H](CC(N)=O)NC(=O)[C@@H]1CCCN1C(=O)[C@H](CO)NC(=O)[C@H](CO)NC(=O)[C@H](Cc1c[nH]cn1)NC(=O)[C@H](CCCNC(=N)N)NC(=O)[C@H](CC(C)C)NC(=O)[C@H](Cc1ccccc1)NC(=O)[C@H](Cc1c[nH]cn1)NC(=O)[C@H](C)NC(=O)[C@H](CC(C)C)NC(=O)[C@H](CCCNC(=N)N)NC(=O)[C@H](CCC(N)=O)NC(=O)[C@@H](NC(=O)[C@H](C)NC(=O)[C@@H]1CSSC[C@H](NC(=O)[C@H](CCCCN)NC(=O)CC[C@H](NC(=O)CCCCCCCCCCCCCCCCCCC(=O)O)C(=O)O)C(=O)N[C@@H](CC(N)=O)C(=O)N[C@@H]([C@@H](C)O)C(=O)N[C@@H](C)C(=O)N[C@@H]([C@@H](C)O)C(=O)N1)[C@@H](C)O)C(=O)N1CCC[C@H]1C(=O)N[C@@H](CO)C(=O)N[C@@H](CO)C(=O)N[C@H](C(=O)N[C@@H](CC(N)=O)C(=O)N[C@H](C(=O)NCC(=O)N[C@@H](CO)C(=O)N[C@@H](CCC(=O)O)C(=O)N[C@H](C(=O)N[C@@H](Cc1ccc(O)cc1)C(N)=O)[C@@H](C)O)C(C)C)[C@@H](C)O, modifications are with respect to human amylin; also called compound 30) | 36.1 | 23.6 | 3.14 | 114
2 | K([AEEA-γGlu-C20 diacid])CNTATCATQRLANFLRHSSPNFGAIPSSTPVGSNTY-NH2 (disulfide 2-7; N-terminus assumed; SMILES CC[C@H](C)[C@H](NC(=O)[C@H](C)NC(=O)CNC(=O)[C@H](Cc1ccccc1)NC(=O)[C@H](CC(N)=O)NC(=O)[C@@H]1CCCN1C(=O)[C@H](CO)NC(=O)[C@H](CO)NC(=O)[C@H](Cc1c[nH]cn1)NC(=O)[C@H](CCCNC(=N)N)NC(=O)[C@H](CC(C)C)NC(=O)[C@H](Cc1ccccc1)NC(=O)[C@H](CC(N)=O)NC(=O)[C@H](C)NC(=O)[C@H](CC(C)C)NC(=O)[C@H](CCCNC(=N)N)NC(=O)[C@H](CCC(N)=O)NC(=O)[C@@H](NC(=O)[C@H](C)NC(=O)[C@@H]1CSSC[C@H](NC(=O)[C@@H](N)CCCCNC(=O)COCCOCCNC(=O)CC[C@H](NC(=O)CCCCCCCCCCCCCCCCCCC(=O)O)C(=O)O)C(=O)N[C@@H](CC(N)=O)C(=O)N[C@@H]([C@@H](C)O)C(=O)N[C@@H](C)C(=O)N[C@@H]([C@@H](C)O)C(=O)N1)[C@@H](C)O)C(=O)N1CCC[C@H]1C(=O)N[C@@H](CO)C(=O)N[C@@H](CO)C(=O)N[C@H](C(=O)N1CCC[C@H]1C(=O)N[C@H](C(=O)NCC(=O)N[C@@H](CO)C(=O)N[C@@H](CC(N)=O)C(=O)N[C@H](C(=O)N[C@@H](Cc1ccc(O)cc1)C(N)=O)[C@@H](C)O)C(C)C)[C@@H](C)O, modifications are with respect to human amylin; also called compound 49) | 47.7 | 10.8 | 1.08 | 51.4

Reference: patent US20140087995A1 (published 2014)
